In PMC10534222:

Key:
[1] = target: FITC-labelled peptide (FITC)…; assay: fluorescence polarisation
[2] = target: chicken Tapasin (chTapasin), luminal domain (chicken (Gallus gallus)); assay: SPR
[3] = target: chicken Tapasin (chTapasin), luminal domain (chicken (Gallus gallus)); assay: NMR titration

Substance | Kd [1] [nM] | Kd [2] [nM] | lifetime of the complex [3] [ms]
empty open B*37:01/chTapasin complex (from UniProt P61769 21-119) | 5.5 |  | 
open HLA-B*37:01 (heavy chain G120C, β2m H31C, interchain disulfide), empty (UV-irradiated) (from UniProt P61769 21-119) (complex) | 6.16 | 1200 | > 200
